± gives the uncertainty stated by the source.
B1: Zinc finger homeobox protein 3, residues 2643 to 2698; numbered along this chain, Q15911 (parent)
chain: RLRTTITPEQLEILYQKYLLDSNPTRKMLDHIAHEVGLKKRVVQVWFQNTRARERK

Variants of: B1
Assay: abundance fitness (aPCA) (normalised: wild type 0, dead -1); higher = more abundant; growth selection in yeast, the domain comes from the species named
Details: Homo sapiens
With RLRTTITPEQLEILYQKYLLDSNPTRKMLDHIAHEVGLKKRVVQVWVQNTRARERK [F47V] the abundance fitness was -0.902 ± 0.14.
With RLRTTITPEQLEILYNKYLLDSNPTRKMLDHIAHEVGLKKRVVQVWFQNTRARERK [Q16N] the abundance fitness was -0.226 ± 0.21.
Work on RLRTTITPEQLEILYAKYLLDSNPTRKMLDHIAHEVGLKKRVVQVWFQNTRARERK [Q16A] yielded an abundance fitness of 0.052 ± 0.086.
Work on RLRTTITPEQLEILYQKYLLDSNQTRKMLDHIAHEVGLKKRVVQVWFQNTRARERK [P24Q] yielded an abundance fitness of -0.354 ± 0.14.
RLRTTITPEQLEILYQKYLLDSNPTRKMLVHIAHEVGLKKRVVQVWFQNTRARERK [D30V] gave an abundance fitness of -0.223 ± 0.094.
For RLRTTITPEQLEILYQKYLLDSNPTRIMLDHIAHEVGLKKRVVQVWFQNTRARERK [K27I], the abundance fitness was -0.028 ± 0.14.
For RLRTTITPEQLEILYQMYLLDSNPTRKMLDHIAHEVGLKKRVVQVWFQNTRARERK [K17M], the abundance fitness was 0.114 ± 0.13.
With RLRTTITPEQLEILYQKYLLDSNPTRKMLDHIAHEVGLKGRVVQVWFQNTRARERK [K40G] the abundance fitness was 0.04 ± 0.079.
RLRTTITPEQLEILYQKYLLDSNPTRKMLDHIAHEVGLKPRVVQVWFQNTRARERK [K40P] gave an abundance fitness of 0.258 ± 0.1.
For RLRTTITPEQLEILYQKYLLDSNPTRKMLDHIAHEVGLKKRVVQVWFQNTRDRERK [A52D], the abundance fitness was 0.244 ± 0.12.
Variant RLRTTITPEQLEILYQKYLLDSNPTRKMLDHIAHEVGLKKRVVQVWFQNTRSRERK [A52S] has an abundance fitness of -0.021 ± 0.083.
RLRTTITPCQLEILYQKYLLDSNPTRKMLDHIAHEVGLKKRVVQVWFQNTRARERK [E9C] gave an abundance fitness of -0.712 ± 0.091.
With RLRTTITPEQLEILYQKHLLDSNPTRKMLDHIAHEVGLKKRVVQVWFQNTRARERK [Y18H] the abundance fitness was -1.03 ± 0.35.
Work on RSRTTITPEQLEILYQKYLLDSNPTRKMLDHIAHEVGLKKRVVQVWFQNTRARERK [L2S] yielded an abundance fitness of 0.331 ± 0.1.
For RQRTTITPEQLEILYQKYLLDSNPTRKMLDHIAHEVGLKKRVVQVWFQNTRARERK [L2Q], the abundance fitness was 0.102 ± 0.21.
RLRTTITPEQLEILYQKYLLDSNPTRKMLDYIAHEVGLKKRVVQVWFQNTRARERK [H31Y] gave an abundance fitness of -0.014 ± 0.19.
Work on RLRTTITPEQLEILYQKYLLDSNPTRKMLDFIAHEVGLKKRVVQVWFQNTRARERK [H31F] yielded an abundance fitness of -0.068 ± 0.14.
With RLRTTITPEQLEILYQKYLLDSNPTRKMLDHIAHEVGLKKRVVQVWFQDTRARERK [N49D] the abundance fitness was 0.172 ± 0.15.
For RLRTTITPEQLEILYQKYLLDSNPTRKMLDHIAHEVGLKKRVVQVWFQGTRARERK [N49G], the abundance fitness was -0.234 ± 0.078.
Variant RLRTTIMPEQLEILYQKYLLDSNPTRKMLDHIAHEVGLKKRVVQVWFQNTRARERK [T7M] has an abundance fitness of -0.228 ± 0.15.
For RLRTTITPEQLEILYQKYLLDSNPTSKMLDHIAHEVGLKKRVVQVWFQNTRARERK [R26S], the abundance fitness was 0.428 ± 0.08.
With RLRTTITPEQLEILYQKYLLDSNPTVKMLDHIAHEVGLKKRVVQVWFQNTRARERK [R26V] the abundance fitness was 0.383 ± 0.078.
Work on RLRTTITPEQLEILYQKYLLDSNPTRKMLDHIAHEVGLKKRVVQVWFQNFRARERK [T50F] yielded an abundance fitness of -0.322 ± 0.19.
RLRTTITPEQLEIEYQKYLLDSNPTRKMLDHIAHEVGLKKRVVQVWFQNTRARERK [L14E] showed an abundance fitness of -0.791 ± 0.12.
RLRTTITPEQLEITYQKYLLDSNPTRKMLDHIAHEVGLKKRVVQVWFQNTRARERK [L14T] showed an abundance fitness of -1.04 ± 0.17.
With RLRTTITPEQLEILYQKYLLDSNPTRKMLDHIAHEVTLKKRVVQVWFQNTRARERK [G37T] the abundance fitness was -0.825 ± 0.13.
In the case of RLRTTITPEQLEILYQKYLLDSNPTRKMLDHIAHEMGLKKRVVQVWFQNTRARERK [V36M], the abundance fitness is reported as -0.427 ± 0.18.
Variant RLRTTITPEQLEILYQKYLLDSNPTRKMLDHIAHEAGLKKRVVQVWFQNTRARERK [V36A] has an abundance fitness of -0.114 ± 0.09.
With RLRTTITNEQLEILYQKYLLDSNPTRKMLDHIAHEVGLKKRVVQVWFQNTRARERK [P8N] the abundance fitness was -0.06 ± 0.3.
Work on RLRTTITDEQLEILYQKYLLDSNPTRKMLDHIAHEVGLKKRVVQVWFQNTRARERK [P8D] yielded an abundance fitness of -0.084 ± 0.14.
RLRTTITPEQLEILYQKYLLDSNPTRKMLDHIAHEVGLKKRVVQVWFDNTRARERK [Q48D] gave an abundance fitness of 0.505 ± 0.2.
In the case of RLRTTITPEQLEILYQKYLLDSNPTRKMLDHIAHEVGLKKRVVQVWFKNTRARERK [Q48K], the abundance fitness is reported as 0.096 ± 0.13.
Variant RLRTTITPEQLEILYQKYLLDSNPTRKMLDHIAHEVGLKKRVVQPWFQNTRARERK [V45P] has an abundance fitness of -0.764 ± 0.14.
With RLRTEITPEQLEILYQKYLLDSNPTRKMLDHIAHEVGLKKRVVQVWFQNTRARERK [T5E] the abundance fitness was 0.445 ± 0.15.
In the case of RLRTTITPEQLEILYQKYLLGSNPTRKMLDHIAHEVGLKKRVVQVWFQNTRARERK [D21G], the abundance fitness is reported as -0.321 ± 0.087.
In the case of RLRTTITPEQLEILYQKYLLDSNPTRKMLDHIAHEVGLKKRVVQVWFQNTTARERK [R51T], the abundance fitness is reported as -0.305 ± 0.16.
RLRTTITPEQLEILYQKYLLDSNPTRKMLDHIAHEVGLKKRVVQVWFQNTDARERK [R51D] showed an abundance fitness of -0.474 ± 0.14.
Work on RLRTTITPEQLEILYQKYLLDSNPTRKMLDHIAHEVGLKKRVVQVWFQNTRAFERK [R53F] yielded an abundance fitness of 0.239 ± 0.24.
Variant RLRTTITPEQLEILYQKYLLDKNPTRKMLDHIAHEVGLKKRVVQVWFQNTRARERK [S22K] has an abundance fitness of -0.178 ± 0.14.
Work on RLRTTQTPEQLEILYQKYLLDSNPTRKMLDHIAHEVGLKKRVVQVWFQNTRARERK [I6Q] yielded an abundance fitness of -0.705 ± 0.12.
Variant RLRTTCTPEQLEILYQKYLLDSNPTRKMLDHIAHEVGLKKRVVQVWFQNTRARERK [I6C] has an abundance fitness of -0.022 ± 0.1.
RLRITITPEQLEILYQKYLLDSNPTRKMLDHIAHEVGLKKRVVQVWFQNTRARERK [T4I] showed an abundance fitness of 0.048 ± 0.21.
Work on RLRTTITPEQLAILYQKYLLDSNPTRKMLDHIAHEVGLKKRVVQVWFQNTRARERK [E12A] yielded an abundance fitness of -0.07 ± 0.082.
RLRTTITPEQLWILYQKYLLDSNPTRKMLDHIAHEVGLKKRVVQVWFQNTRARERK [E12W] showed an abundance fitness of -0.749 ± 0.12.
Work on RLRTTITPEQLEILYQKYLLDSNPTRKMLDHIAHEVGLKKRVVQVAFQNTRARERK [W46A] yielded an abundance fitness of -0.482 ± 0.12.
RLRTTITPEQLEILYQKYLLDSNPTRKMLDHIAHEVGLGKRVVQVWFQNTRARERK [K39G] showed an abundance fitness of 0.178 ± 0.072.
For RLRTTITPEQLEILYQKYLLDSNPTRKMLDHIAHEVGLHKRVVQVWFQNTRARERK [K39H], the abundance fitness was -0.392 ± 0.18.

From the Human Domainome abundance scans (Beltran et al. 2025)
